Laboratory results taken from US10876098B2, “Polynucleotide, host cell and a method to recombinantly produce the protein encoded by said polynucleotide having peroxygenative activity” (CONSEJO SUPERIOR DE INVESTIGACIONES CIENTIFICAS (CSIC), priority 2015, dated 2020).

What was measured:
Format in all cases: biochemical
[1] = Dual colorimetric HTS, DMP (peroxidase activity on microplate); details: parental PaDa-I; S. cerevisiae microcultures
Method: (§1) The mother plates were centrifuged (Eppendorf 5810R centrifuge, Germany) for 10 minutes at 3,500 RPM and 4° C. 20 μL of supernatant were transferred from these mother plates to two replica daughter plates with the help of a Freedom EVO liquid handling robot (Tecan, Switzerland).
(§2) The plates were briefly agitated and initial absorbance was measured at 469 nm and 510 nm, respectively, using a plate reader for such purpose ([…]ax Plus 384, Molecular Devices, USA). […] The plates were kept at room temperature until they turned orange (DMP) or red (naphthol-Fast Red), at which time the absorbance was newly measured. The values were normalised against the parental of each plate. In order to rule out false positives, two re-screenings were carried out, in addition to a third re-screening wherein kinetic stability was determined (T50) (P. Molina-Espeja, et al. Appl. Environ. Microbiol. 2014. 80, 3496-3507).

[2] = Conversion of 1-naphthol into 1,4-naphthoquinone, HPLC; details: versus PaDa-I
Method: Each reaction was performed in triplicate and were stopped with HCl (pH<1) at different times (between 60 and 600 s). Inset: polymeric colorimetric products derived from 1.4-naphthoquinone, 1: PaDa-I and 2: JaWa.
This effect can also be observed at first glance, since the polymeric products produced in the reaction with the PaDa-I variants (SEQ ID NO: 18) (due to non-enzymatic quinone regrouping processes) are coloured (FIG. 4). There are hypotheses in literature on the possibility that UPO is similar to CPO in the existence of different sites with peroxidase activity in its structure. To suppress these alternative peroxidation pathways, the structure of the AaeUPO1 crystal was closely examined and a variant was built by mean of directed mutagenesis in Trp24 (FIG. 5A), a highly oxidable residue, found on the protein surface, using the PaDa-I (SEQ ID NO: 18) and JaWa (SEQ ID NO: 24) variants as templates, as described in the section on materials and methods.

[3] = Dual colorimetric HTS, naphthalene-Fast Red (peroxygenase activity on microplate); details: parental PaDa-I; S. cerevisiae microcultures
Method: as §1, §2

[4] = Turnover with 5′-hydroxypropranolol as substrate, HPLC; details: 0.03 μM enzyme, 0.4 mM 5′-hydroxypropranolol, 2 mM H2O2, absence of ascorbic acid
Method: FIG. 14 Turnover rates of AaeUPO, JaWa and SoLo. […] The disappearance of the product 5′-hydroxypropranolol can be observed due to the formation of its corresponding quinone by means of the peroxidase activity of the enzyme.
The reactions were analysed by means of chromatography in reverse phase (HPLC). The equipment was composed of a tertiary pump (Varian-Agilent Technologies, USA) coupled to an autosampler (Merck Millipore, MA, USA); for the separation, a Zorbax Eclipse plus C18 column (15 cm×4.6 cm) at 40° C. was used and the detection was performed using a photodiode detector (PDA) (Varian, Agilent Technologies, USA). The mobile phase selected was a gradient from 10% methanol and 90% ddH2O (in both cases with 0.1% of acetic acid) up to 90% methanol and 10% ddH2O at a flow rate of 0.8 mL/min. The reaction was quantified at 280 nm (based on HPLC standards). […] The standard deviations were less than 5% in all cases.

[5] = 4-AAP assay with propranolol in the presence of ascorbic acid (peroxygenase activity); details: 0.2 μM pure variant, 5 mM propranolol, 2 mM H2O2, with and without 4 mM ascorbic acid
Method: FIG. 9 Assay of 4-AAP (4-aminoantipyrine) with different pure UPO variants (AaeUPO1, PaDa-1 and JaWa). […] Each reaction was performed in triplicate.
The mother plates were centrifuged (Eppendorf 5810R centrifuge, Germany) for 10 minutes at 3,500 RPM and 4° C. 20 μL of supernatant of these mother plates were transferred to two replica daughter plates with the help of a Freedom EVO liquid-handling robot (Tecan, Switzerland).
Without ascorbic, the plates were incubated for 30 minutes and with ascorbic for 60 minutes. […] The plates were briefly agitated and absorbance measured at 530 nm, using a plate reader for such purpose ([…]ax Plus 384, Molecular Devices, USA). The values were normalised against the parental of each plate. To rule out false positives, re-screenings were carried out, in addition to a third re-screening wherein kinetic stability was determined (T50) (P. Molina-Espeja, et al. Appl. Environ. Microbiol. 2014. 80, 3496-3507).

[6] = Optimum pH for DMP
[7] = Optimum pH for naphthalene

B1: JaWa: PaDa-I variant with added mutations G241D and R257K, SEQ ID NO: 24 (protein)
chain: MKYFPLFPTLVYAVGVVAFPDYASLAGLSQQELDAIIPTLEAREPGLPPGPLENSSAKLVNDEAHPWKPLRPGDIRGPCPGLNTLASHGYLPRNGVATPAQIINAVQEGFNFDNQAAIFATYAAHLVDGNLITDLLSIGRKTRLTGPDPPPPASVGGLNEHGTFEGDASMTRGDAFFGNNHDFNETLFEQLVDYSNRFGGGKYNLTVAGELRFKRIQDSIATNPNFSFVDFRFFTAYGETTFPANLFVDGRRDDGQLDMDAARSFFQFSRMPDDFFRAPSPRSDTGVEVVVQAHPMQPGKNVGKINSYTVDPTSSDFSTPCLMYEKFVNITVKSLYPNPTVQLRKALNTNLDFLFQGVAAGCTQVFPYGRD
- peroxidase activity on microplate relative to parental [1]: reduced to half
- reduction in the ratio 1,4-naphthoquinone:1-naphthol [2]: ~1.5 fold
- peroxygenase activity on microplate relative to parental [3]: doubled that of its parental
- 5′-hydroxypropranolol maintained without oxidising [4]: oxidise practically the entire product
- activity against propranolol in 4-AAP assay among pure UPO variants [5]: greatest activity against propranolol
- Optimum pH for DMP [6]: 6.0
- Optimum pH for naphthalene [7]: 6.0
